Test results: PMC13365592

Tests used:
Assay in all cases: cryo-EM structure
MEL_256 (melbournevirus) = target: MEL_256 (melbournevirus)
[1] = target: MEL_213b (melbournevirus)
[2] = target: major capsid protein MEL_305 (melbournevirus)

MEL_256 (natural protein)
stoichiometry N (MEL_256 (melbournevirus)): 5

MEL_213b (natural protein)
stoichiometry N [1]: 2

major capsid protein MEL_305 (natural protein)
stoichiometry N [2]: 3
